Assay results published in paper PMC10786891, “Massively parallel profiling of RNA-targeting CRISPR-Cas13d”.
Residue numbers refer to the chain shown, from its start. Names and notes keep the numbering of the source.

T1: EsCas13d, nuclease-dead (Eubacterium siraeum, UniProt B0MS50, R295A;H300A;R849A;H854A)
T1 sequence: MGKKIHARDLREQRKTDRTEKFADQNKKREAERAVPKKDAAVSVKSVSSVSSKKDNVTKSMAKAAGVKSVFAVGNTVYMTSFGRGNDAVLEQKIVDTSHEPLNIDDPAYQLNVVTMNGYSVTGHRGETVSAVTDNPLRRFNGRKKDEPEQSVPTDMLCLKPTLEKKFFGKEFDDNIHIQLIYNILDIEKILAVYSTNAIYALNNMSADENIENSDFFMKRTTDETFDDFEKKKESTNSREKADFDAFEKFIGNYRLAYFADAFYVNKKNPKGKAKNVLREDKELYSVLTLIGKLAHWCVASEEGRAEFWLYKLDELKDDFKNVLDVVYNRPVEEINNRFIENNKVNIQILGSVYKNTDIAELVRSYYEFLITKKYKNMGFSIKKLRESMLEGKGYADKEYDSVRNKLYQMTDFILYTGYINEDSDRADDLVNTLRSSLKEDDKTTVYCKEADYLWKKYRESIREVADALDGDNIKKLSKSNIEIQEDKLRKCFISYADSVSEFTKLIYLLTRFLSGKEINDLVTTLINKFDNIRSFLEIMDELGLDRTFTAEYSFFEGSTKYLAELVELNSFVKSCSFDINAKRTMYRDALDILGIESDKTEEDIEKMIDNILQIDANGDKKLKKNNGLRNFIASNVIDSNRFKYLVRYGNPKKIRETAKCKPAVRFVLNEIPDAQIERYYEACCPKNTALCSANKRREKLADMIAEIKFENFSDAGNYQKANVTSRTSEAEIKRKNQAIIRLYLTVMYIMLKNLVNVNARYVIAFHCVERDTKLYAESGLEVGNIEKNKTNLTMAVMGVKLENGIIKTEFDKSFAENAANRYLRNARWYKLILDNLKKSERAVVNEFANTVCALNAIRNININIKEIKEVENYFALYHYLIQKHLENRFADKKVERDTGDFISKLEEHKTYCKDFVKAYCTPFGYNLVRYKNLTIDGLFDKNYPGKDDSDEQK

B1: target 1 G12A,A20U (mixed)
RNA 1: CACCCGUGCAAAAAUGCAGGGGUCUAAAACUGAGCGGAUAACCUCUCUAUGG
RNA 2: GGGAAUGGAUCCACAUCUACGAAUUCGUACCUUAGAGAGAUUAUCCGCUCACCGAGAUCGGAAGAGCACACGU
B2: target 1 C7G,G12C (mixed)
RNA 1: B1 RNA 1
RNA 2: B1 RNA 2 with U32A, A40C, C45G
B3: target 1 insC 3' of 22,insG 3' of 8 (mixed)
RNA 1: B1 RNA 1
RNA 2: GGGAAUGGAUCCACAUCUACGAAUUCGUACCCAUAGAGAGGUUAUGCCGCUCACCGAGAUCGGAAGAGCACACGU
B4: target 1 A9U,G15A (mixed)
RNA 1: B1 RNA 1
RNA 2: B1 RNA 2 with U32A, G37A, A40G, A43U
B5: target 1 insC 3' of 22,insA 3' of 19 (mixed)
RNA 1: B1 RNA 1
RNA 2: B3 RNA 2 with G36A, A37G, G38A, A39G, G40A, U42G, A44U, U45A, G46U
B6: target 1 insA 3' of 10,insC 3' of 3 (mixed)
RNA 1: B1 RNA 1
RNA 2: GGGAAUGGAUCCACAUCUACGAAUUCGUACCAUAGAGAGGUUAAUCCGCUCCACCGAGAUCGGAAGAGCACACGU
B7: target 1 U10A,C21A (mixed)
RNA 1: B1 RNA 1
RNA 2: B1 RNA 2 with C31A, U32A, A40G, U42A
B8: target 1 insG 3' of 11,insG 3' of 2 (mixed)
RNA 1: B1 RNA 1
RNA 2: B6 RNA 2 with U42G, A43U, C52G
B9: target 1 C7G,C21U (mixed)
RNA 1: B1 RNA 1
RNA 2: B1 RNA 2 with C31U, U32A, A40G, C45G
B10: target 1 U8A,A16G (mixed)
RNA 1: B1 RNA 1
RNA 2: B1 RNA 2 with U32A, A36G, A40G, U44A
B11: target 1 insU 3' of 4 (mixed)
RNA 1: B1 RNA 1
RNA 2: GGGAAUGGAUCCACAUCUACGAAUUCGUACCAUAGAGAGGUUAUCCGCUUCACCGAGAUCGGAAGAGCACACGU
B12: target 1 U8A,G17U (mixed)
RNA 1: B1 RNA 1
RNA 2: B1 RNA 2 with U32A, G35U, A40G, U44A
B13: target 1 A1U,A9C (mixed)
RNA 1: B1 RNA 1
RNA 2: B1 RNA 2 with U32A, A40G, A43C, A51U
B14: target 1 insA 3' of 7,insG 3' of 4 (mixed)
RNA 1: B1 RNA 1
RNA 2: B6 RNA 2 with A44U, U45C, C46A, U50G, C51U
B15: target 1 insU 3' of 22,insC 3' of 5 (mixed)
RNA 1: B1 RNA 1
RNA 2: B3 RNA 2 with C31U, G46C, C48G, G49C
B16: target 1 insC 3' of 19,insC 3' of 9 (mixed)
RNA 1: B1 RNA 1
RNA 2: B3 RNA 2 with C32A, A33U, U34C, U45C, G46U

The binders below were run against T1, EsCas13d, nuclease-dead (assay: crRNA (strand 1, pre-loaded); Mg2+; 40 mM Tris-HCl pH 7.5, 150 mM NaCl, 6 mM MgCl2, 1 mM DTT, 0.1% Tween-20, 0.2 mg/ml BSA; 25 C; 10 min per concentration, then washed). Details: tags: His6-TwinStrep-SUMO cleaved; N-terminal SNAP kept (SNAP-Surface 488); label: 3' end held by stalled T7 RNA polymerase.

Question: B1 was tested. Which Kd did it give?
Answer: 15.7 ± 0.9 nM

Question: B2 was tested. Which Kd did it give?
Answer: 23.6 ± 1.4 nM

Question: For B3, which Kd is on record?
Answer: 33 ± 4 nM

Question: For B4, which Kd is on record?
Answer: 19.1 ± 1.4 nM

Question: How did the Kd turn out when B5 was run?
Answer: 30 ± 9 nM

Question: For B6, which Kd is on record?
Answer: 10.3 ± 0.6 nM

Question: How did the Kd turn out when B7 was run?
Answer: 33 ± 5 nM

Question: Which Kd does the source give for B8 here?
Answer: 57 ± 8 nM

Question: For B9, which Kd is on record?
Answer: 6.7 ± 0.31 nM

Question: B10 was tested. Which Kd did it give?
Answer: 64 ± 6 nM

Question: How did the Kd turn out when B11 was run?
Answer: 8.7 ± 0.7 nM

Question: With B12 as the binder, how does the Kd read?
Answer: 61 ± 8 nM

Question: For B13, which Kd is on record?
Answer: 15.4 ± 1.7 nM

Question: Which Kd does the source give for B14 here?
Answer: 5.33 ± 0.17 nM

Question: B15 was tested. Which Kd did it give?
Answer: 100 ± 50 nM

Question: With B16 as the binder, how does the Kd read?
Answer: 56 ± 11 nM
